The text below walks through data of publication doi:10.1101/2020.06.02.126235.

The series addresses AAV2 OBD (Adeno-associated virus 2, UniProt P03132 1-199). The series can be described thus: X-ray crystallography.

Sequence of AAV2 OBD (P03132 1-199): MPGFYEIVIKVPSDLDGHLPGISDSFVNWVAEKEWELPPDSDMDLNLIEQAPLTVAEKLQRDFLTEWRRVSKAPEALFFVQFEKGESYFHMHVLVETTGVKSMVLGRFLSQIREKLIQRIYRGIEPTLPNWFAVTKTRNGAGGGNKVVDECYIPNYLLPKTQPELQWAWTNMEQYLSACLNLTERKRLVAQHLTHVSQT

In the case of ATATGCTCGCTCTT (ssDNA) [ssRBS 14-mer (Site A)], the binding result is listed as “binds”.
